Molecular target: T1, AIRE-PHD1 P326L mutant (human, UniProt O43918 293-346, P326L)
T1 sequence (looked up): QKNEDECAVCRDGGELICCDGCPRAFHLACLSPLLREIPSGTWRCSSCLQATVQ
Assay: NMR titration

binding result: binds
B1: unmodified histone H3 peptide (residues 1-11) (peptide, UniProt P68431 2-12, looked up)
peptide: ARTKQTARKST

— PMC2923636 (Structure (London, England : 1993), 2009)
